Results reported in PMC12412656.

How the values were obtained:
[1] = molecular target: RIAM TBS1 (4-30C) synthetic peptide, fluorescein-labelled; assay: fluorescence polarisation; R7R8 serially diluted (maximum 160 μM) into 0.5 μM fluorescein-labelled peptide; PBS with 1 mM TCEP and 0.02% Tween-20; room temperature; triplicate; one-site total binding model
[2] = molecular target: DLC1 TBS (465-489C) synthetic peptide, fluorescein-labelled; assay: as above
[3] = molecular target: talin 1 R7R8 domain protein (mouse) (mouse); assay: fluorescence polarisation; competition: R7R8 (30 μM) pre-incubated with DLC1 TBS-F (1 μM) 20 min at room temperature, diluted 1:2 into unlabeled peptide at twofold increasing concentrations up to 160 μM; one-site Ki fit

Molecule	Kd [1]	Kd [2]	Ki [3]
talin 1 R7R8 domain protein (mouse) (domain or fragment)	9.21 µM	4.92 µM	
SEDIDQMFSTLLGEMDLLTQSLGVDTC [RIAM TBS1 (4-30C) synthetic peptide, unlabeled]			90 µM
